# Data reported in paper PMC9905591, “A single point mutation expands the applicability of ostreolysin A6 in biomedicine” (Scientific Reports, 2023).
# B1: Δ48PlyB (pleurotolysin B) (domain or fragment, Pleurotus ostreatus, UniProt Q5W9E8 49-523, looked up)
# chain: SQAGDTLNDVIQDPTRRNKLINDNNLLKGIIMGRDGPVPSSRELIVRPDTLRAIINNRATIETTTMEAEFTETLMESNYNSASVKVSAPFITANSEYSESSSFKNTETEKSMYTSSRYLFPQGRIDFTTPDSGFDDVIKLSPQFTSGVQAALAKATGTEKREALQNLFQEYGHVFRTKVHIGGVLSAHTMETFSRSENETEVKQDVKAGLEGAVKGWGGGATAGHGNTQGTITTSQNRKLNVKYIVNGGDYTKIQNTEEWVASTNQSEHWRVIEVTEVTAVADLLPQPIRGQVKDLLKPLLGKWVDVEKVPGLESLPVSVYRPKGAIPAGWFWLGDTADASKALLVKPTLPARSGRNPALTSLHQGSGMTEQPFVDLPQYQYLSTYFGSFAHDTPPGSTLRGLRPDHVLPGRYEMHGDTISTAVYVTRPVDVPFPEDECFDLKSLVRVKLPGSGNPPKPRSALKKSMVLFDSGEK
# Target: T1, OlyA6 mutant E69A (Pleurotus ostreatus, UniProt P83467 1-138, E69A)
# T1 sequence: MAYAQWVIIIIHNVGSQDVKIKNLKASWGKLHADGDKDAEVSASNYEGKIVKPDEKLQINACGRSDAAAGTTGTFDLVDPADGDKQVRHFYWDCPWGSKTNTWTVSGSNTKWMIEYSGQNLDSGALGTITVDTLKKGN
# Test: cell-based or functional assay
binder,measurement,value
B1,"hazard ratio against buffer, Kaplan-Meier survival of Colorado potato beetle larvae on E69A/PlyB-treated leaf discs",2.76
